Consider five molecules from PMC8533794, “Selection of a Nuclease-Resistant RNA Aptamer Targeting CD19”.

Series [1] concerns the target T1, endogenous CD19 of MEC-1 cells (human (MEC-1 B-CLL cell line)) (UniProt P15391).
T1 sequence: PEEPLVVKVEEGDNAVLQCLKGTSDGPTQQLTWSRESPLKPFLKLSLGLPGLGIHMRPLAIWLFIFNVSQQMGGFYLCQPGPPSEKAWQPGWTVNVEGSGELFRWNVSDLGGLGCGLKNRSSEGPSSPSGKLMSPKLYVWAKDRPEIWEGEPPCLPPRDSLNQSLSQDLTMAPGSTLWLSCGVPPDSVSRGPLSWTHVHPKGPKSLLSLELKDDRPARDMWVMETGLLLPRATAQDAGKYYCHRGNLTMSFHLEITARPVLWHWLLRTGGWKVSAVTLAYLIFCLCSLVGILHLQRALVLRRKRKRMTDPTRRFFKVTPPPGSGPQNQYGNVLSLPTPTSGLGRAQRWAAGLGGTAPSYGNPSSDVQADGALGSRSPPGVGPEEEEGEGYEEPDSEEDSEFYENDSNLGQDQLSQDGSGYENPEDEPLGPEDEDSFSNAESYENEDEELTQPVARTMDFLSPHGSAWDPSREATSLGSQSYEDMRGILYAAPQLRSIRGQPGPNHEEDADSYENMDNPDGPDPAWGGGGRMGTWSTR
Briefly: flow cytometry. Particulars: 2'-fluoro pyrimidines; BLI: running buffer not stated (tips prehydrated in PBS), temperature not stated; cell binding: serum-free medium, 37 C, 30 min, with poly(I) 0.1 ug/uL (qPCR) ….

In series [2] the target is T2, CD19 on transfected COS-7 cells (human) (UniProt P15391).
T2 sequence: T1 sequence
Briefly: cell binding RT-qPCR. The following applies: 200 nM aptamer, poly(I); 2'-fluoro pyrimidines; BLI: running buffer not stated (tips prehydrated in PBS), temperature not stated; cell binding: serum-free medium, 37 C, 30 min, with poly(I) 0.1 ug/uL (qPCR) …. A general note: In qPCR the cycle at which signal appears reflects the starting amount.

Series [3] deals with T3, rhCD19 (recombinant human CD19, extracellular domain) (human, UniProt P15391 20-291). Briefly: BLI; 2.5-100 nM aptamer; BLI: running buffer not stated (tips prehydrated in PBS), temperature not stated; cell binding: serum-free medium, 37 C, 30 min, with poly(I) 0.1 ug/uL (qPCR) or tRNA 0.4 ug/uL plus 100 nM Ctrl Apt (FACS); pull-down lysis: 10 mM Tris-HCl pH 7.5, 200 mM NaCl, 5 mM EDTA, 0.1% Triton X-100. The following applies: protein: recombinant. For orientation: Biolayer interferometry detects binding as a change in optical thickness at a sensor tip.

The target in series [4] is rhBCMA (B Cell Maturation Antigen) (human, UniProt Q02223 1-54). Put plainly: BLI; up to 1 uM aptamer; BLI: running buffer not stated (tips prehydrated in PBS), temperature not stated; cell binding: serum-free medium, 37 C, 30 min, with poly(I) 0.1 ug/uL (qPCR) or tRNA 0.4 ug/uL plus 100 nM Ctrl Apt (FACS); pull-down lysis: 10 mM Tris-HCl pH 7.5, 200 mM NaCl, 5 mM EDTA, 0.1% Triton X-100. Particulars: protein: recombinant.
rhBCMA (B Cell Maturation Antigen), sequence (Q02223 1-54): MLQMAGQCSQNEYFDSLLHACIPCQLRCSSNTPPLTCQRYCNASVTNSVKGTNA

The target of series [5] is T3, rhCD19 (recombinant human CD19, …). The series is described as above. The following applies: protein: recombinant.

For the molecule “UGAGCCCUGUUCGACAGGAGGCUCA [B85.T2 (FAM)]”, the binding signal (fold over Jurkat) in series [1] worked out at 2.
Regarding CCUGUUGUUCGACAGGAGGCUCACAACAGG [B88.T2], the binding signal (fold over parental COS-7) in series [2] was determined as 7.
For the molecule UGAGCCCUGUUCGACAGGAGGCUCA [B85.T2], in series [2], the binding signal (fold over parental COS-7) was 22.
For orientation: Kd means the concentration at which binding is half-saturated. Take UGAGCCCUGUUCGACAGGAGGCUCA (structured_RNA, 2'-fluoro pyrimidines) [B85.T2]: the dissociation constant Kd in series [3] is 49.9 ± 13 nM. In addition, the binding result in series [4] was “no binding”.
On to UUCGUACCGGGUAGGUUGGCUUGCACAUAGAACGUGUCA (structured_RNA, 2'-fluoro pyrimidines) [Ctrl Apt], for which the binding result in series [5] was “no binding”.
